We go through 1 protein from patent US20070298494.

The nature of the series: BS3 chemical cross-linking in solution, SDS-PAGE, silver stain; association of the peptide with itself.

B1: N-K4-M2GlyR (peptide)
chain: KKKKPARVGLGITTVLTMTTQSSGSRA
As for B1, the number of aggregates entry is recorded as “SEQ ID No. 3 comprised 12 or more aggregates”.
